Assay results published in US20220323495A1 (NATIONAL RESEARCH COUNCIL OF CANADA, published 2022).

Columns and labels:
[1] = biological target: T1, EGFRvIII amino acid residues 15 to 37 with Tyr25 to Ala mutation, yeast-displayed (human, not fully specified); experiment: flow cytometry on yeast displaying the mutated 15-37 fragment
T1 construct: The entry already carries the mutation
T1 peptide: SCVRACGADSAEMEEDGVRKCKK
Excerpt: (§1) Assessment of the binding of anti-EGFRvIII monoclonal antibodies to the fusion proteins expressed on yeast cell surface was done by flow cytometry analysis. Yeast cells were labeled with both the anti-EGFRvIII monoclonal antibody and chicken anti-Myc antibody the latter being used to monitor the level of expression of the fusion protein. Following a wash step, binding of the primary antibodies is probed by a two-color indirect fluorescence labeling using a specific mouse and chicken secondary antibodies for each of the primary antibody respectively.
(§2) To further characterize mAb epitopes within the EGFRvIII 15-37 region, an alanine scan of this region was performed, and modified fragments were expressed at the surface of the yeast. […] The resulting DNAs were expressed at the surface of the yeast and each anti-EGFRvIII mAbs was tested on the corresponding yeast mutant strain by flow cytometry analysis. The original Ala19 and Ala22 were not mutated. Thus, this assay determined the contribution of each amino acid(s) in mAb binding in comparison to the original wild-type fragment (SEQ ID NO:5) which is attributed the value of 100%.

[2] = biological target: T2, EGFRvIII amino acid residues 15 to 37 with Glu26 to Ala mutation, yeast-displayed (human, not fully specified); experiment: as above
T2 construct: The entry already carries the mutation
T2 peptide: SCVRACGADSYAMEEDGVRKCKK
Excerpt: as §1, §2

[3] = biological target: T3, EGFRvIII amino acid residues 15 to 37 with Val17 to Ala mutation, yeast-displayed (human, not fully specified); experiment: flow cytometry on yeast displaying the Ala-mutated 15-37 fragment; normalized to Myc-tag; wild-type fragment = 100%
T3 construct: The entry already carries the mutation
T3 peptide: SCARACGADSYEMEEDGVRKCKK
Excerpt: as §1, §2

[4] = biological target: T4, EGFRvIII amino acid residues 15 to 37 with Asp23 to Ala mutation, yeast-displayed (human, not fully specified); experiment: as above
T4 construct: The entry already carries the mutation
T4 peptide: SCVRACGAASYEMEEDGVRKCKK
Excerpt: as §1, §2

[5] = biological target: T1, EGFRvIII amino acid residues 15 to 37 …; experiment: as above
Excerpt: as §1, §2

[6] = biological target: T2, EGFRvIII amino acid residues 15 to 37 …; experiment: as above
Excerpt: as §1, §2

[7] = biological target: T5, EGFRvIII amino acid residues 15 to 37 with Gly31 to Ala mutation, yeast-displayed (human, not fully specified); experiment: as above
T5 construct: The entry already carries the mutation
T5 peptide: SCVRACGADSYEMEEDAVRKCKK
Excerpt: as §1, §2

| Binder | binding result [1] | binding result [2] | % of binding compared to the wild-type sequence [3] [%] | % of binding compared to the wild-type sequence [4] [%] | % of binding compared to the wild-type sequence [5] [%] | % of binding compared to the wild-type sequence [6] [%] | % of binding compared to the wild-type sequence [7] [%] |
| --- | --- | --- | --- | --- | --- | --- | --- |
| F269-3D12 anti-EGFRvIII monoclonal antibody (antibody, V domains shown, Mouse hybridoma IgG, tested as supernatant or Protein G purified mAb; also called 3D12-2) VH: EVQLQQSGPELVKPGSSVRISCKASGYTFTDYNMDWVKQSHGKSLEWIGTINPNNGGTSYNQKFKGKATLTVDKSSSTAYMELRSLTSEDSAVYYCARVRQLGLWFAYWGQGTLVTVSA VL: EIVLTQSPALMAASPGEKVTITCSVSSSISSSNLHWYQQKSETSPKPWIYGTSNLASGVPVRFSGSGSGTSYSLTISSMEAEDAATYYCQQWSSYPLTFGSGTKLEIK | no binding | no binding | 116 | 62.4 |  |  |  |
| F265-5B7 anti-EGFRvIII monoclonal antibody (antibody, V domains shown, Mouse hybridoma IgG, tested as supernatant or Protein G purified mAb; also called 5B7-2) VH: QIQLVQSGPELKKPGETVMISCKASGYSFTNYGMNWVKQAPEKDLKWMGWINTYTGESRYVDEFKGRFAFSLETSVSIVYLKINNLKNEDMATYFCARGPNFDVWGTGTTVTVSS VL: not shown |  |  |  |  | 192 | 140 | 98.9 |
